Source: US20240409645A1
Positions count from the first letter of the chain named. Each block holds one binder with its values, some of them ahead of it.

Target: T1, mouse IL-2Rβ (mouse) (UniProt P16297)
T1 sequence (looked up): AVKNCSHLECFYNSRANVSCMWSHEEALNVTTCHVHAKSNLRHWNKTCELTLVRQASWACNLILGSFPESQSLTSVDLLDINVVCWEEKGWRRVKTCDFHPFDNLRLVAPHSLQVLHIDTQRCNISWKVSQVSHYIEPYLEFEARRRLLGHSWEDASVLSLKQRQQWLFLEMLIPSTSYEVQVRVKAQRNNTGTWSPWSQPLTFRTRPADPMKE
Experiment: P.E. ELISA, coated protein

B1: FJ1427_P035MP02F03 (VHH)
VHH: EVQLVESGGGLVQAGGSLRLSCAASGGTFSSYAMGWFRQAPGKEREFVAATTRGGGRTMYAVSTEGRFTCSRDNAKNTVYLLMNSLKPEDTAVYYCAAMTSYYSGTYYPDSSDFDIWGQGTQVTVSS
P.E. binding ELISA OD: 0.048 OD450 nm

B5: FJ1427_P035MP02E04 (VHH)
VHH: B1 VHH with L82Q, E89K, V93I
P.E. binding ELISA OD: 0.048 OD450 nm

B8: FJ1427 P035MP02G05 (VHH)
VHH: EVQLVESGGGLVQTGGSLRLSCAASGSQFINDVTGWYRQVPGKQRELVADMDDTGSTKYADSVKGRFTILRDSVKNTAYLQMSNLKPEDTGVYYCKAGLWIKGRHSDYWGQGTQVTVSS
P.E. binding ELISA OD: 0.048 OD450 nm

B9: FJ1427_P035MP02G04 (VHH)
VHH: B8 VHH with E1Q, T14A, T34M, S106F
P.E. binding ELISA OD: 0.048 OD450 nm

B11: FJ1427 P035MP02F04 (VHH)
VHH: B8 VHH with T34M, S106F
P.E. binding ELISA OD: 0.048 OD450 nm

B14: FJ1427_P035MP02E05 (VHH)
VHH: EVQLVESGGGLVQIGGSLRLSCAASGRTFSSITMAYFRQVPGKEHEWVAGINFSGTRTFYADSVKGRFLISRDDAKSTMYLQMNSLKPEDTAVYYCAASPRGFYGPGNALYDYWGQGTQVTVSS
P.E. binding ELISA OD: 0.048 OD450 nm

B16: FJ1427 P035MP02B07 (VHH)
VHH: EVQLVESGGGLVEAGGSLRLSCAASGRAFNNFPMGWFRQAPGKEREFVAAITWISGSTLYADSVKGRFTISRDKSKNTVYLQMSGLKPEDTALYYCAAALKTITRGQHDYTYWGQGTQVTVSS
P.E. binding ELISA OD: 0.046 OD450 nm

B17: FJ1427_P035MP02A08 (VHH)
VHH: EVQLVESGGGLVQAGGSLRLSCTVSGDVFVRYTMAWFRQAPGKEREFVATVTDSGRTTEYVDSVKGRFTVSRDNAKNTVYLQMNNLKPEDTAVYYCAANTDYFRIRSLDANTWGQGTQVTVSS
P.E. binding ELISA OD: 0.069 OD450 nm

B18: FJ1427 P035MP02D08 (VHH)
VHH: B17 VHH with T23V, A49T, T50S, V51I
P.E. binding ELISA OD: 0.048 OD450 nm

B19: FJ1427 P035MP02G08 (VHH)
VHH: B17 VHH with E1Q, T50S, D62H, K65R
P.E. binding ELISA OD: 0.055 OD450 nm

B20: FJ1427_P035MP02E08 (VHH)
VHH: B17 VHH with T23V, T50V, R104Q, L108V, A110N, T112A
P.E. binding ELISA OD: 0.058 OD450 nm

B21: FJ1427_P035MP02G03 (VHH)
VHH: QVQLVESGGGLVQPGGSLGLSCAASGFTFSNYAMSWVRQAPGKGLEWVASITGFGRGTDYADSVKGRFTVSRDNAKNTLYLQMNSLKPEDTAVYYCAKYSSSTYYPPTPARGRDYRGQGTQVTVSS
P.E. binding ELISA OD: 0.049 OD450 nm

B22: FJ1427_P035MP02C04 (VHH)
VHH: B21 VHH with G19E, A49S, V70I, A75D, K98R
P.E. binding ELISA OD: 0.047 OD450 nm

B24: FJ1427 P035MP02C06 (VHH)
VHH: B21 VHH with V2L, G19E, A49S, V70I, K98R
P.E. binding ELISA OD: 0.047 OD450 nm

B25: FJ1427_P035MP02B06 (VHH)
VHH: B21 VHH with G16E, A49S, F54A, V70I, S102G, A110V, R113T
P.E. binding ELISA OD: 0.047 OD450 nm

B27: FJ1427_P035MP02E03 (VHH)
VHH: EVQLVESGGGSVQTGGSLRLSCVVSGSHFISDVMGWYRQVPGKQRELVADMADGGSVKYGDSVKGRFTILRDSVKNTVTLQMSSLNPEDTGVYYCKAGLWITGRHFDYWGQGTQVTVTS
P.E. binding ELISA OD: 0.049 OD450 nm

B28: FJ1427 P035MP02H05 (VHH)
VHH: B27 VHH with V57A, F106S
P.E. binding ELISA OD: 0.049 OD450 nm

B29: FJ1427_P035MP02F08 (VHH)
VHH: QVQLVESGGGLVQAGGSLRLSCAASGSIFSLNTMGWFRQAPGKEREFVAAISRSGGSATYGDSVKGRFTISTNNAKTTVYLQMNSLKPDDTAVYSCAASAAVGWTTRWSTIDFDSWGQGTQVTVSS
P.E. binding ELISA OD: 0.048 OD450 nm

B30: FJ1427_P035MP02D04 (VHH)
VHH: QVQLVESGGGLVQTGGSLRLSCAVSGSRFISDVMGWYRQVPGKQRELVADMADGGSAKYADSVKGRFSILRDSVKNTVYLQMSSLKPEDTGIYYCKAGLWIAGRHSDYWGQGTQVTVSS
P.E. binding ELISA OD: 0.048 OD450 nm

B31: FJ1427_P035MP02F05 (VHH)
VHH: B30 VHH with Q1E
P.E. binding ELISA OD: 0.048 OD450 nm

B33: FJ1427_P035MP02F06 (VHH)
VHH: EVQLVESGGGLVQTGGSLRLSCAASGSRFISDFMGWYRQVPGKQRELVADMADGGSARYGDSVKGRFTILRESGNATAYLQMSSLKPEDTGVYYCKAGLWIAGRHFDYWGQGTQVTVSS
P.E. binding ELISA OD: 0.047 OD450 nm

B34: FJ1427 P035MP02C08 (VHH)
VHH: EVQLVESGGGLVQAGGSLRLSCAASGSTFSRQPMYWFRQAPGKEREFVAAITWSGRGTLYADSVEGRFTISRDNAKNTVYLQMNSLRPDDTAAYYCAAGPYGDAAYRHGRIDSWGQGTQVTVSS
P.E. binding ELISA OD: 0.047 OD450 nm

Now from value to binder:

P.E. binding ELISA OD: 0.048 OD450 nm
B2: FJ1427_P035MP02A06 (VHH)
VHH: B1 VHH with E1Q, V5Q, A75D, E89K

P.E. binding ELISA OD: 0.05 OD450 nm
B3: FJ1427 P035MP02H04 (VHH)
VHH: B1 VHH with E1Q, G16D, A24T, G27L, M34L, E44K, A75D, E89K

P.E. binding ELISA OD: 0.047 OD450 nm
B4: FJ1427_P035MP02B04 (VHH)
VHH: B1 VHH with R19G, L82Q, E89K, V93I

P.E. binding ELISA OD: 0.048 OD450 nm
B6: FJ1427 P035MP02A04 (VHH)
VHH: B8 VHH with A23T, T34M, K64N

P.E. binding ELISA OD: 0.048 OD450 nm
B7: FJ1427_P035MP02B05 (VHH)
VHH: B8 VHH with T34M, S106F

P.E. binding ELISA OD: 0.047 OD450 nm
B10: FJ1427_P035MP02D06 (VHH)
VHH: B8 VHH with T34M

P.E. binding ELISA OD: 0.047 OD450 nm
B12: FJ1427_P035MP02A05 (VHH)
VHH: B8 VHH with T34M

P.E. binding ELISA OD: 0.046 OD450 nm
B13: FJ1427_P035MP02D07 (VHH)
VHH: EVQLVESGGGLVQAGGSLRLSCAASGRSLSTTEMGWFRQAPGKEREFVAAITWSGRGTMYAESVEGRFAVSRENAKNTVYLQMNSLKPEDTAIYYCAAARRGRAAVRSEGGYDFWGQGTQVTVSS

P.E. binding ELISA OD: 0.046 OD450 nm
B15: FJ1427_P035MP02C07 (VHH)
VHH: QVQLVESGGGLVQAGGSLRLSCAASGRTFSINTMGWFRQAPGKEREFVAAISRSGDSTVYVDSVKGRFTISRDNAKNTVYLQMNTLKPEDTAVYYCATTVAVGWTTRWSTIDFDSWGQGTQVTVSS

P.E. binding ELISA OD: 0.049 OD450 nm
B23: FJ1427 P035MP02D05 (VHH)
VHH: B21 VHH with G16E, A49S, F54A, V70I, S102G, A110V, R113T

P.E. binding ELISA OD: 0.049 OD450 nm
B26: FJ1427_P035MP02H08 (VHH)
VHH: EVQLVESGGGLVQAGDSLRISCAASGRIFSNYAMGWFRQAPGKETEFVAGITHLTSTTHYADSVKGRFTISRDNAKNTMHLQMNNLKPEDTALYYCAADRNIKITADWSYWGQGTQVTVAS

P.E. binding ELISA OD: 0.047 OD450 nm
B32: FJ1427 P035MP02C05 (VHH)
VHH: B30 VHH
